# According to patent US20100119511A1 (Biogen, published 2010):
# B1: 71F10 Fab-hLIGHT fusion with the delta 4 linker (BIIB71F10-130) (other)
# heavy: EVQLLESGGGLVQPGGSLRLSCAASGFTFSSYGMVWVRQAPGKGLEWVSSISSSGGLTWYADSVKGRFTISRDNSKNTLYLQMNSLRAEDTAVYYCASPPGIAVARDYWGQGTLVTVSSASTKGPSVFPLAPSSKSTSGGTAALGCLVKDYFPEPVTVSWNSGALTSGVHTFPAVLQSSGLYSLSSVVTVPSSSLGTQTYICNVNHKPSNTKVDKKVEPKSCDKLHWRLGEMVTRLPDGPAGSWQERRSHEVNPAAHLTGANSSLTGSGGPLLWETQLGLAFLRGLSYHDGALVVTKAGYYYIYSKVQLGGVGCPLGLASTITHGLYKRTPRYPEELELLVSQQSPCGRATSSSRVWWDSSFLGGVVHLEAGEEVVVRVLDERLVRLRDGTRSYFGAFMV
# light: DIQMTQSPSSLSASVGDRVTITCRASQGISNYLAWYQQKPGKVPKLLIYAASTLQSGVPSRFSGSGSGTDFTLTISSLQPEDVATYYCQKYNSALLTFGGGTKVEIKRTVAAPSVFIFPPSDEQLKSGTASVVCLLNNFYPREAKVQWKVDNALQSGNSQESVTEQDSKDSTYSLSSTLTLSKADYEKHKVYACEVTHQGLSSPVTKSFNRGEC
# modifications: Assembles as a trimer of heavy/light pairs; one pair is given.
# notes: Fab heavy chain fused to human LIGHT extracellular portion; assembles as a trimer (66 kDa x3); also called pBIIB71F10-130; 71F10 Fab-Δ4huLIGHT
# Assays:
# [1] = molecular target: LTβR on human tumor cells (SKBR-3, HT29) (human, UniProt P36941 31-435); test: cell-based or functional assay
# [2] = molecular target: T1, HVEM-Ig (species not stated); test: ELISA (Table 2; species of HVEM not given)
# T1 construct: also called HVEM-Fc
# Procedure: (§1) Human and murine ErbB2-Fc were obtained from R&D Systems. Wells of 96-well plates were coated with 2 ug/ml or 0.2 ug/ml of human or murine HER2-Fc by incubation overnight at 4-8° C. with either of these six proteins (80 ul/well of a 0.2 or 2 ug/ml solution in PBS). Wells were emptied, filled completely with a solution of PBS with 1% BSA (blocking buffer) and incubated at room temperature for 1 hour. Wells were emptied, washed twice PBS containing 0.05% Tween 20 (PBST) and filled with the samples (80 ul/well of 3× dilution series of the standard and supernatants in blocking buffer) prepared in another 96-well plate. After a 2-hour incubation at room temperature, the wells were emptied, washed three times with PBST and filled with a solution of HRP-conjugated goat pAbs anti-human kappa chain (80 ul/well of a 2000-fold dilution in blocking buffer). After 1-hour incubation, the wells were emptied and filled with a solution of HRP substrate prepared freshly. The color was left to develop for 3 minutes and was stopped by addition of an equal volume of 1N H₂SO₄. Absorbance was measured at 450 nm using a Plate Reader (SpectraMax, Molecular Devices). The data was processed and graphs were created using SoftMax Pro software.
# Human and murine HVEM-Ig were expressed and purified in house.
# [3] = molecular target: T2, HER2-Fc (species not stated); test: ELISA (Table 2; species of Her2 not given)
# T2 construct: probably human
# Procedure: as §1
# [4] = molecular target: T3, LTβR-Ig (species not stated); test: ELISA (Table 2; species of LTbR not given)
# T3 construct: also called LTβR-human Fc fusion
# Procedure: as §1
# Human and murine LTBR-Ig were expressed and purified in house.
# [5] = molecular target: T4, human HER2/ErbB2, full length, on cells (human, UniProt P04626 23-1255); test: FACS (Table 2; cells not given, Examples 14-16 use SKBR3 or CHO/hHER2)
# T4 construct: whole, on cells; also called hHER2/ErbB2; wild type HER2/ErbB
# [6] = molecular target: T1, HVEM-Ig (species not stated); test: FACS (Table 2; format not given, Example 16 detects HVEM-Fc on cell-bound fusion)
# [7] = molecular target: T3, LTβR-Ig (species not stated); test: FACS (Table 2; format not given, Example 16 detects LTbR-Ig on cell-bound fusion)
# [8] = molecular target: T2, HER2-Fc (species not stated); test: biolayer interferometry (Octet), receptor Fc fusion on anti-human Fc sensor, culture supernatant
# Procedure: (§2) Anti-human Fc-specific biosensors (Fortebio SKU 18-0001) were hydrated in OB (1×PBS supplemented with 1 mg/ml BSA, 0.05% NaN₃, and 0.02% TWEEN 20) for at least five minutes prior to assays. For each assay, the respective receptor Fc fusion was diluted to 10 μg/ml in OB and allowed to bind to the biosensors for five minutes. The sensors were then incubated in the indicated culture supernatant for an additional five minutes, and subsequently transferred to fresh wells […].
# [9] = molecular target: T3, LTβR-Ig (species not stated); test: as above
# Procedure: as §2
# [10] = molecular target: T1, HVEM-Ig (species not stated); test: as above
# Procedure: as §2
# human HER2-Fc = molecular target: T5, human HER2-Fc (human, UniProt P04626 23-652); test: ELISA on coated huHER2-Fc, detection anti-human kappa-HRP; value is C (midpoint) of the printed 4-P fit; x axis Fab equivalent concentration
# T5 construct: extracellular domain; Homodimeric fusion protein from R&D Systems; also called human ErbB2-Fc; rhErbB2-Fc; not shown: Fc fragment of human IgG1
# murine HER2-Fc = molecular target: T6, murine HER2-Fc (mouse; human, UniProt P70424 23-653); test: ELISA on coated muHER2-Fc, detection anti-human kappa-HRP; value is C (midpoint) of the printed 4-P fit; x axis Fab equivalent concentration
# T6 construct: extracellular domain; Homodimeric fusion protein from R&D Systems; also called murine ErbB2-Fc; not shown: Fc fragment of human IgG1
# T6 sequence (P70424 23-653): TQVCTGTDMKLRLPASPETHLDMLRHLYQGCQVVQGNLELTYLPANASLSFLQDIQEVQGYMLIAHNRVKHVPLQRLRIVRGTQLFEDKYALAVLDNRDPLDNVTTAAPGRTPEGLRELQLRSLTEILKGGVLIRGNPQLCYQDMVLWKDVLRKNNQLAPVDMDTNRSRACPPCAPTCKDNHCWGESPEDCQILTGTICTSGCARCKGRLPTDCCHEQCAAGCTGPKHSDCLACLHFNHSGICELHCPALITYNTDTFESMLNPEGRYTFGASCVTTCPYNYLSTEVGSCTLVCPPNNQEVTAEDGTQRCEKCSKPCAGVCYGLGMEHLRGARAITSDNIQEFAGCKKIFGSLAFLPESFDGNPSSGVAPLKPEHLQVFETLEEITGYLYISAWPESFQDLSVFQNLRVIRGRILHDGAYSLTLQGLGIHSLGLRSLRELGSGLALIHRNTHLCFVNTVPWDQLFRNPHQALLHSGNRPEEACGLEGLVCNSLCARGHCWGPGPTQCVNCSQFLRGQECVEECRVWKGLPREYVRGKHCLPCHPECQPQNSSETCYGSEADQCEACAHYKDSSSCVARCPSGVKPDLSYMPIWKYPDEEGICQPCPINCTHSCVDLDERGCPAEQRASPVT
# Chain of LTβR on human tumor cells (SKBR-3, HT29) (P36941 31-435): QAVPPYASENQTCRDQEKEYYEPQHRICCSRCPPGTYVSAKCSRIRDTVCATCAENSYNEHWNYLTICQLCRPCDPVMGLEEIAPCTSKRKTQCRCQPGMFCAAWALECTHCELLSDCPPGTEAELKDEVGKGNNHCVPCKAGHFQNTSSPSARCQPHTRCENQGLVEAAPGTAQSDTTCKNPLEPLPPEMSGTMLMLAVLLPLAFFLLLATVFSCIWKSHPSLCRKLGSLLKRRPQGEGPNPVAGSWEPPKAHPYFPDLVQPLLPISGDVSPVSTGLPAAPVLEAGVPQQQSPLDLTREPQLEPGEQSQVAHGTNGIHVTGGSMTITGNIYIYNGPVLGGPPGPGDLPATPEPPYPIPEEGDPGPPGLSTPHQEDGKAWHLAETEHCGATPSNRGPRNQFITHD
# T3 sequence (P36941 31-227): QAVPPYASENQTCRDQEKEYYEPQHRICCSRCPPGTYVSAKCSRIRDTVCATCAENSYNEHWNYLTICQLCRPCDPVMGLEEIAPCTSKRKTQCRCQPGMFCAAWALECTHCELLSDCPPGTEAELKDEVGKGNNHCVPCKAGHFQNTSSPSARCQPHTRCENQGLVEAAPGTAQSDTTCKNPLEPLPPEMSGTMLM
# T1 sequence (Q92956 39-202): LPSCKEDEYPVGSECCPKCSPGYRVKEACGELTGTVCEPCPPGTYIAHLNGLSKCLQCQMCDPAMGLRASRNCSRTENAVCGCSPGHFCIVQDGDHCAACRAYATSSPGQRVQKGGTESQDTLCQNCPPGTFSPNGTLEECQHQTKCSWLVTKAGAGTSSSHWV
binder,measurement,setting,value
B1,"CCL2 (MCP-1) transcript, fold difference test/control, HT29 cells, quantitative RT-PCR",[1],1050 fold
same,"CCL5 (RANTES) transcript, fold difference test/control, HT29 cells, quantitative RT-PCR",[1],1220 fold
same,"CCL7 (MCP-3) transcript, fold difference test/control, HT29 cells, quantitative RT-PCR",[1],-527 fold
same,"CCL21 transcript, fold difference test/control, HT29 cells, quantitative RT-PCR",[1],546 fold
same,"CCR4 transcript, fold difference test/control, HT29 cells, quantitative RT-PCR",[1],1650 fold
same,"CXCL2 transcript, fold difference test/control, HT29 cells, quantitative RT-PCR",[1],1130 fold
same,"CXCL3 transcript, fold difference test/control, HT29 cells, quantitative RT-PCR",[1],1090 fold
same,"CXCL5 (ENA-78/LIX) transcript, fold difference test/control, HT29 cells, quantitative RT-PCR",[1],1810 fold
same,"CXCL9 transcript, fold difference test/control, HT29 cells, quantitative RT-PCR",[1],675 fold
same,"CXCL10 (IP-10) transcript, fold difference test/control, HT29 cells, quantitative RT-PCR",[1],5270 fold
same,"CXCL11 (I-TAC/IP9) transcript, fold difference test/control, HT29 cells, quantitative RT-PCR",[1],1730 fold
same,"IFNA2 transcript, fold difference test/control, HT29 cells, quantitative RT-PCR",[1],193 fold
same,"IL5 transcript, fold difference test/control, HT29 cells, quantitative RT-PCR",[1],940 fold
same,"IL8 transcript, fold difference test/control, HT29 cells, quantitative RT-PCR",[1],373 fold
same,"IL10RA transcript, fold difference test/control, HT29 cells, quantitative RT-PCR",[1],3440 fold
same,"LTB transcript, fold difference test/control, HT29 cells, quantitative RT-PCR",[1],2910 fold
same,"TNF transcript, fold difference test/control, HT29 cells, quantitative RT-PCR",[1],7370 fold
same,EC50,[2],0.01 nM
same,EC50,[3],0.05 nM
same,EC50,[4],0.01 nM
same,EC50,[5],0.5 nM
same,EC50,[6],0.5 nM
same,EC50,[7],0.2 nM
same,koff,[8],0.000112 s⁻¹
same,koff,[9],0.000168 s⁻¹
same,koff,[10],0.000122 s⁻¹
same,EC50,human HER2-Fc,0.00955 µg/mL
same,EC50,murine HER2-Fc,0.0114 µg/mL
